Data reported in US20220315908A1, “NOVEL GARDNERELLA ENDOLYSINS AND USES THEREOF” (priority 2019, published 2022).

The molecules below were run on G. vaginalis sensu stricto strain Gv_9 (assay: Quantitative reduction in viable CFU assay in bacterial suspension). Details: Gv_9; 5 hours, pH 5.0, anaerobic; 10 ul endolysin (0.2 mg/ml where possible) + 90 ul 5e7 CFU/ml; average of triplicate.
Format: cell-based, Gardnerella vaginalis sensu stricto
Procedure: The lysis activity on the four main species of Gardnerella of 91 constructs (natural and domain-swapped endolysins) was quantitatively assessed using the method described in Reference Example 2. […]
The results are shown in FIGS. 8A to 8D together with Tables 5A to 5C. In FIGS. 8A to 8D, the logarithmic Y axis depicts the count of surviving cells. The dotted line indicates the limit of detection (LOD) given by plating of 2 ul of the reaction mix (500 CFU/ml). Each combination of the natural 10 H-domains and the natural 9 B-regions was assessed, including the natural endolysins (H1B1, H2B2, H3B3, etc.), plus H6B6. […] The activity of each construct was measured on each of the 4 main Gardnerella species G. vaginalis sensu stricto, G. leopoldii, G. piotii, and G. swidsinkii. All conditions have been measured in triplicate. The survival after 5 hours incubation at pH 5.0 under anaerobic conditions with endolysins vs. buffer was measured by quantitative plating. The values indicate the log 10 of the ratio of surviving CFU for treated vs. untreated cells. The average of the triplicate measurements is used. In tables 5A and 5B, high negative log 10 values, e.g. −6.7, −5.5, −4.8 etc. are associated with high enzymatic activity, while log 10 values closer to zero or even positive log 10 values are associated with low or no enzymatic activity. […] Inversely, a reduction value of −3.7 means a 10^3.7-fold (=5012-fold) reduction of viable CFU in treated sample vs. untreated control.
Gardnerella cells were recovered from cryo stock by plating on Chocolate Agar plates (Beckton Dickinson) and incubating for 48 h at 37° C. under anaerobic conditions. For Lactobacilli, BD Schaedler/5% sheep blood agar plates were used instead. Colonies were scraped from the plate, resuspended in Hardy Broth or NYC-III-HS-5.0 at the pH as indicated, and the suspension adjusted to OD (610 or 620 nm as indicated) 0.1. It has to be noted that two Tecan Microplate readers, having respectively a 610 nm or 620 nm filter, have been used interchangeably in the experiments. Although it doesn't make any difference for the experiments, the exact wavelength used is specified in each example. If not stated otherwise, 90 μl cell suspension was mixed with 10 μl endolysin solution, for the different species/endolysin combinations, in 384-well plates. OD(610-620 nm as indicated) was measured at the beginning of the reaction and at the end, either as two measurement points or as a continuous kinetic in a Tecan F200 Microplate reader. The reactions were incubated for 5 hours (or otherwise the time indicated) at 37° C. under anaerobic, micro-aerophilic or aerobic conditions as indicated. Anaerobic conditions intend that oxygen was fully depleted from the container in which the bacteria are incubated (Sigma-Aldrich anaerobic jar or sealable lunch box) with an anaerobic sachet, and the lack of oxygen was confirmed with an anaerobic indicator inside the container. Where micro-aerophilic conditions are indicated, the candle-in-a-jar method was used (tea candle lit in an appropriate sealable container, which reduces oxygen levels until the flame dies out). Then each well was diluted in 5 steps (10^−1 to 10^−5) using 96-U-well bottom plates, and 2 μl of each dilution of each reaction mix are plated on BD Chocolate agar plates or BD Schaedler/5% sheep blood agar plates for Gardnerella and Lactobacilli, respectively, for detecting and quantifying surviving CFU. Detection plates were incubated at 37° C. for 48 hours under anaerobic conditions.

Row | Molecule | log 10 of the ratio of surviving CFU for treated vs. untreated cells [log 10]
1 | H4B4: natural Gardnerella prophage endolysin from strain Gv5-1 (protein, EL4_strain_Gv5-1) MSKKGIDVSEWQGDIDFNAVKASGVEFVIIRAGYGIGCKDKWFEQNYRKAKTCGLDVGAYWYSYANSGFEAAEEAQSCVNMLSGKSFEYPVYFDLEEKSQLNRGRAFCDSLITSFCSKLETYGYYAGFYTSLSVVNNLVSAHVRDRYALWIAQWNTHCSYQGSYGLWQYSSSGSVPGVAGRVDMDYAYVDYPSIIKNVGLNGCKNGGSDQATRTSSIDEVAREVINGAWGNGNERKQRLTSAGYDYASVQNKVNKLLGVKAYRKSVDELAREVIRGTWGNGNERKQRLAQAGYDYDTVQKRVNELL | −0.4
2 | H3B3: natural Gardnerella prophage endolysin from strain Gv18-4 (protein, EL3_strain_Gv18-4) MSKKGIDVSVWQGDIDFNSVKASGVEFVIIRAGYGIGHKDKWFEENYRKAKTAGLDVGSYWYSYASSAGEASEEAQSCVNILSGKSFEYPIYFDLEEKSQLNRGRDFCDSLITSFCNKLEACGYYAGFYTSLSVANNLVSSHVRDRYALWIAQWNTHCSYQGSYGLWQYSSSGSVNGIAGRVDMDYAYVDYPSVIKNAGLNGYQNGGSYTAPQTSSIDEVAREVINGDWGNGNDRKNRLISAGYDYASVQNKVNELLGVKAYRKSVDELAREVIRGTWGNGSMRKHRLTQAGYDYDAVQKRVNELL | −3.0
3 | H2B2: natural Gardnerella prophage endolysin from strain Gv18-4 (protein, EL2_strain_Gv18-4) MSKRGIDVSEWQGDIDFNAVKASGVEFVIIRAGYGIGCKDKWFEQNYRKAKTCGLDVGAYWYSYANSGFEAAEEAQSCVNMLSGKSFEYPVYFDLEEKSQLNRGRAFCDSLITGFCNKLESCGYYAGFYTSLSTANNLVSAHVRNRYALWIAQWNTHCSYQGSYGLWQYSSSGSVPGVAGRVDMDYAYVDYPSIIKNVGLNGCKNGGSDQAARTSSIDEVAREVINGAWGNGNERKQRLTSAGYDYASVQNKVNELLGVKACRKSVDEIAREVIRGTWGNGSTRKQRLTQAGYDYDTVQKRVNELL | −1.2
4 | H12B12: natural Gardnerella prophage endolysin from strain 3549624 (protein, EL12_strain_3549624_non-prophage) MSKKGIDVSVWQGDIDFNAVKASGVEFVIIRAGYGIGHKDKWFEENYRKAKTAGLDVGSYWYSYASSAGEVALEAQSCVNILSGKSFEYPVYFDLEEKSQLNRGRDFCDSLITSFCNKLEACGYYAGFYTSLSVANNLVSSHVRDRYALWIAQWNTHCSYQGSYGLWQYSSSGSVNGIAGRVDMDYAYVDYPSVIKNAGLNGYQNGGSYTAPQTSSIDEVAREVINGDWGNGIERKNRLTSAGYDYTSVQNKVNELLGVKAYRKSVDELAREVIRGTWGNGKTRKQRLTQAGYDYNAVQKRVNELL | −0.2
5 | H10B10: natural Gardnerella prophage endolysin from strain G30-4 (protein, EL10_strain_G30-4) MSKRGIDVSVWQGDIDFNAVKASGVEFVIIRAGYGIGHKDKWFEENYRKAKTVGLDVGAYWYSYASSAGEASEEAQSCVNILSGKSFEYPVYFDLEEKSQLNRGRDFCDSLITSFCNKLEACGYYAGFYTSLSVANNLVSSHVRDRYALWIAQWNTHCSYQGSYGLWQYSSSGSVNGIAGRVDMDYAYVDYPSVIKNAGLNGYKNGGSYTAPQISSIDEVAREVINGDWGNGNERKQRLTSAGYDYASVQNKVNELLGVKAYRKSVDELAREVIRGTWGNGSTRKQRLTQAGYDYNAVQKRVNELL | −3.5
6 | H1B1: natural Gardnerella prophage endolysin from strain HMP9231 (protein, EL1_strain_HMP9231, natural Gardnerella prophage endolysin from strain HMP9231) MSKKGIDVSEWQGDIDFNAVKASGVEFVIIRAGYGIGCKDKWFEQNYRKAKTAGLDVGAYWYSYANSGFEAAEEAQSLMNMLSGKSFEYPVYFDLEEKSQLNRGRAFCDSLITSFCNKLEACGYYAGFYTSLSTANNLVSAHVRNRYALWIAQWNTHCNYQGSYGLWQYSSNGSVPGVAGRVDMDYAYVDYPSIIKNAGLNGCKNGGSDQAARTSSIDEVAREVINGAWGNGSTRKQRLTSAGYDYASVQNKVNELLGVKACRKSVDELAREVIRGAWGNGSTRKQRLAQAGYDYDTVQKRVNELL | −1.9
7 | H5B5: natural Gardnerella prophage endolysin from strain JCP7276 (protein, EL5_strain_JCP7276, natural Gardnerella prophage endolysin from strain JCP7276) MSKKGIDVSEWQGDIDFNAVKASGVEFVIIRAGYGIGCKDKWFEQNYRKAKTAGLDVGAYWYSYANSSSEAAEEAQSCANMLSGKSFEYPVYFDLEEKSQLNRGRAFCDSLITGFCSKLEACGYYAGFYTSLSTANNLVSAHVRNRYALWIAQWNTHCSYQGSYGLWQYSSNGSVPGVAGRVDMDYAYKDYPSIIKNAGLNGCKNGGSDQAARTSSIDEVAREVINGAWGNGNERKQRLTQAGYDYTSVQNKVNKLLGVKACRKSVDELAREVIRGTWGNGNERKNRLTQAGYDYDTVQKRVNELL | 0.2
8 | H7B7: natural Gardnerella prophage endolysin from strain AMD (protein, EL7_strain_AMD, natural Gardnerella prophage endolysin from strain AMD) MSKKGIDVSEWQGDIDFNAVKASGVEFVIIRAGYGIGCKDKWFEQNYRKAKTAGLDVGAYWYSYANSASEAAEEAQSCANMLSGKSFEYPVYFDLEEKSQLNRGRAFCDSLITSFCSKLETYGYYAGFYTSLSTANNLVSSHVRNRYALWIAQWNTHCSYQGSYGLWQYSSSGSVPGVAGRVDMDYAYKDYPSIIKNAGLNGCKNGGSDQAARTSSIDEVAREVINGAWGNGNERKQRLTQAGYDYTSVQNKVNKLLGVKACRKSVDELAREVIRGTWGNGNERKNRLTQAGYDYDTVQKRVNELL | −1.6
9 | H11B11: natural Gardnerella prophage endolysin from strain JCP8017A (protein, EL11_strain_JCP8017A, natural Gardnerella prophage endolysin from strain JCP8017A) MSKRGIDVSVWQGDIDFNAVKASGVEFVIIRAGYGIGHKDKWFEQNYRKAKTTGLDVGAYWYSYASSAGEAAEEAQSCVNILSGKSFEYPVYFDLEEKSQLNRGRDFCDSLITSFCNKLETYGYYAGFYTSLSVANNLVSSHVRDRYALWIAQWNTHCDYQGSYGLWQYSSSGSVDGIAGRVDMDYTYVDYPSVIKKAGLNGYKNGGSYTAPQTSSIDEVAREVINGDWGNGNERKNRLTSAGYDYTSVQNKVNELLGVKAYRKSVDELAREVIRGTWGNGSTRKQRLTQAGYDYDAVQKRVNELL | 0.1
